Target: T1, OB-RY986F (Homo sapiens, UniProt P48357, Y986F)
T1 construct: cells transfected with the full-length OB-R constructs; expressed in transfected cells; host or cells: COS-7
T1 sequence (P48357 22-1165 Y986F): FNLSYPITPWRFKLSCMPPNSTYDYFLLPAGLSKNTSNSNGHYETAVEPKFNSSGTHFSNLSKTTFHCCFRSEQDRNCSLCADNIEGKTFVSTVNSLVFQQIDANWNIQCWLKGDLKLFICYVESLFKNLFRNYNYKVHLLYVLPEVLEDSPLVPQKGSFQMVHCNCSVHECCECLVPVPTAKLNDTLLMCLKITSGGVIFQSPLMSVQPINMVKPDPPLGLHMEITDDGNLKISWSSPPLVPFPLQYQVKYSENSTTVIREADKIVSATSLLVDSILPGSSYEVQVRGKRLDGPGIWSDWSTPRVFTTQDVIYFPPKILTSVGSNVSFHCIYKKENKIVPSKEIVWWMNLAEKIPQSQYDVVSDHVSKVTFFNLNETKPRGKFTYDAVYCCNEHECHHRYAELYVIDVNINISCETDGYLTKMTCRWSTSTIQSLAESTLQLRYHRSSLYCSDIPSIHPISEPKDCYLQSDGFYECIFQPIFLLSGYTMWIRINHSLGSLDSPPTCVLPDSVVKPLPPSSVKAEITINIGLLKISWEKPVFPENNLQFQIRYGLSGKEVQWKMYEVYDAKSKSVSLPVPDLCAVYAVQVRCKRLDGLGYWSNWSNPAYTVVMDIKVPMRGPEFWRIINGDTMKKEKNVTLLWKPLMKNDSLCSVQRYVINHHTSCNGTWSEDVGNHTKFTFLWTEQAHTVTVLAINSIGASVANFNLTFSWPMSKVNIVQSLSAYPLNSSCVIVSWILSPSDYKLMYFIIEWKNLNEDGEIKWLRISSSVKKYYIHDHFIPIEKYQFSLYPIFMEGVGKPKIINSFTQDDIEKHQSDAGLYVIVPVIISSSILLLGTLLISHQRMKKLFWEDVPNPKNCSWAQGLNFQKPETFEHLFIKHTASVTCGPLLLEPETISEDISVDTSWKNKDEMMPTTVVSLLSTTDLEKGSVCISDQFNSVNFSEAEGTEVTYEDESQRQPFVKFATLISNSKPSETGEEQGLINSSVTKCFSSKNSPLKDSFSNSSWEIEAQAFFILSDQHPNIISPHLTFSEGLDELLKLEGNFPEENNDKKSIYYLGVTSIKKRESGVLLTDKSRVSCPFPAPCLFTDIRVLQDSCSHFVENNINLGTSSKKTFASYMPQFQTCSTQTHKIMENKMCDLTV
Test: Luciferase reporter gene assay (3(G3)-Cy6-LUC), leptin stimulation of COS cells expressing mutant OB-RY986F
Type: cell-based
Conditions: mutant receptor OB-RY986F, 100 ng/ml leptin for 24 hours
Protocol: The cytoplasmic domain and full-length human OB-R was cloned by PCR using human fetal liver and adipocyte cDNA (Clontech) and cloned into the expression vectors pCMX and pMT21. Chimeric receptors were constructed by fusing the extracellular domain and transmembrane domain of TrkC (amino acids 1 to 458) to the cytoplasmic domain of OB-R (amino acids 865-1165). A triple myc epitope tag was added at the C-terminus of all OB-R constructs (18). Truncation and point mutant constructs were generated by PCR and the sequences of all constructs were verified. Expression constructs were transfected into COS-7 cells using lipofectamine (GIBCO-BRL); 36-48 hours after transfection, cells were starved for either 2 hour,s for chimeric receptors or overnight for full-length receptors prior to stimulation.
Expression constructs (1 μg) for OB-R, OB-RY1141F, OB-RY986F, OB-RY1078, 1079F, and OB-RY986, 1141F were co-transfected with 1 μg of 3(G3)-Cy6-LUC and 0.1 μg of pCMX.LacZ into COS-7 cells (6-well dishes) using lipofectamine. The day after transfection, media was changed to serum-free OptiMEM (GIBCO-BRL) and then treated with 100 ng/ml murine leptin (PeproTech) or human leptin (R&D Systems) for 24 hours. […] Luciferase and β-galactosidase activities were measured in cell lysates (30) and luciferase activity was normalized to β-galactosidase activity to control for transfection differences. […]

leptin: the product of the obese gene, secreted by adipocytes; ligand of OB-R
increase in luciferase activity: 20 fold
